In data set [1] the target is T1, MBP-ApFoxO DBD (Acyrthosiphon pisum, UniProt A0A8R1VZ87 89-178). The data set is described as follows: EMSA; 0.5 and 5 ug protein; concentration-dependent shift; EMSA: room temperature, 30 min; 6% native PAGE in 0.5x TBE, 60 V, 4 C; binding buffer, salt and pH not stated. Conditions: protein: recombinant; tags: N-terminal MBP (pMAL-c2x); label: 5' biotin. For orientation: In EMSA bound probe runs differently from free probe, usually more slowly.

Data set [2] concerns the target T1, MBP-ApFoxO DBD. The data set is described as follows: competition; 5x and 25x unlabeled probe vs labeled FRE2; shift greatly reduced; EMSA: room temperature, 30 min; 6% native PAGE in 0.5x TBE, 60 V, 4 C; binding buffer, salt and pH not stated. The note with it: protein: recombinant; tags: N-terminal MBP (pMAL-c2x).
Data set [3] deals with T1, MBP-ApFoxO DBD. The data set is described as follows: EMSA; 0.5 and 5 ug protein; EMSA: room temperature, 30 min; 6% native PAGE in 0.5x TBE, 60 V, 4 C; binding buffer, salt and pH not stated. The note with it: protein: recombinant; tags: N-terminal MBP (pMAL-c2x); label: 5' biotin.
For data set [4], the target named is T1, MBP-ApFoxO DBD. Briefly: EMSA; 0.5 ug protein, 5x labeled mutant probe; EMSA: room temperature, 30 min; 6% native PAGE in 0.5x TBE, 60 V, 4 C; binding buffer, salt and pH not stated. Conditions: protein: recombinant; tags: N-terminal MBP (pMAL-c2x); label: 5' biotin.

T1 sequence (A0A8R1VZ87 entry or part of it): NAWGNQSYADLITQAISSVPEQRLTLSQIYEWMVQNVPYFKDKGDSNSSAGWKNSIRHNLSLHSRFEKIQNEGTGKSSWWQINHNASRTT

B1: ApHh promoter FRE2 probe (dsDNA)
DNA 1: GATATAGTTTACATGTTTACATGACGGCAGAGA
DNA 2: TCTCTGCCGTCATGTAAACATGTAAACTATATC
Consider B1, for which the binding result in data set [1] is recorded as “binds”.

B2: FRE2 unlabeled competitor (dsDNA)
DNA 1: B1 DNA 1
DNA 2: B1 DNA 2
Regarding B2, the binding result in data set [2] was “binds”.

B3: ApHh promoter FRE1 probe (dsDNA)
DNA 1: TTGACTGTAGTATGTAAACATTTCTGAACTCCA
DNA 2: TGGAGTTCAGAAATGTTTACATACTACAGTCAA
Turning to B3, the binding result in data set [3] is reported as “no binding”.

B4: FRE2 mutant (FRE_m) (dsDNA)
DNA 1: GATATAGTTTACACACCCGTATGACGGCAGAGA
DNA 2: TCTCTGCCGTCATACGGGTGTGTAAACTATATC
B4: the binding result in data set [4] was “no binding”.

Values taken from PMC12145829, “The maternal vGluT2 and embryonic mGluR3 signaling relay system controls offspring wing dimorphism in pea aphid”.
